Source: patent publication US20180037644A1 (Pfizer, published 2018)
Residue numbers refer to the chain shown, from its start.

T1: human IL-33 (mm2) (human, UniProt O95760 112-270)
T1 chain: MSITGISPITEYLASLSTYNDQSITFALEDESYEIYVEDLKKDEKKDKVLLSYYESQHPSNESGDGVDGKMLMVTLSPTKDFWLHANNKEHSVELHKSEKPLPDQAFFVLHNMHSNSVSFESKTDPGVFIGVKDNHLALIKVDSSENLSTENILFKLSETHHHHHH

B1: 7E8 chimera (antibody, human IgG1, kappa, V domains shown)
VH: EVQLVETGGGLVQPGRSLKLSCKTSGFTFSSYWMYWIRQAPGKGLEWVSSITPNGGNTYYPDSVKGRFTISRDNAENTIYLQMSSLRSEDTATYFCAKGHYYYTSYSLGYWGQGSLVTVSS
VL: EIQMTQSPSVLSASVGDRVTLSCKASQNINKHLDWYQQKLGEAPKLLIYFTNNLQTGIPSRFSGSGSGTDCTLTINSLQPGDVATYFCFQYNNGWTFGGGTKLELDR
B2: 9B3-162 (antibody, human IgG1, kappa, V domains shown)
VH: EVQLVETGGGLVQPGRSLKLSCVASGFTFSNYWMYWIRQAPGMGLEWVSSINNDGGNTYYLDSVKGRFTISRNNAENTVYLQMNSLRSEDTATYYCAKGHYYYSSYSFGYWGQGTLVTVSS
VL: DIQMTQSPSVLSASVGDRVTLSCKASHNINKHLDWYQQKVGEAPKLLIYFTNNLQTGIPSRFSGSGSGTDYTLTISSLQPEDVATYFCFQYNSGWTFGQGTKVEIKR
B3: 7E8H/9B3K (antibody, human IgG1, kappa, V domains shown)
VH: B1 VH
VL: B2 VL
B4: IL33-57 (antibody, human IgG1, kappa, V domains shown)
VH: EVQLVESGGGLVQPGGSLRLSCAASGFTFSSYWMYWVRQAPGKGLEWVASITPNGGNTYYPDSVKGRFTISRDNAKNSLYLQMNSLRAEDTAVYYCARGHYYYTDYSLGYWGQGTLVTVSS
VL: DIQMTQSPSSLSASVGDRVTITCKASQNINKHLDWYQQKPGKAPKLLIYFTNNLQTGVPSRFSGSGSGTDFTLTISSLQPEDFATYYCFQYNNGWTFGGGTKVEIKR
B5: IL33-58 (antibody, human IgG1, kappa, V domains shown)
VH: B4 VH with N54L, D105S
VL: B4 VL
B6: IL33-61 (antibody, human IgG1, kappa, V domains shown)
VH: B4 VH with N57E
VL: B4 VL
B7: IL33-62 (antibody, human IgG1, kappa, V domains shown)
VH: B4 VH with N57D
VL: B4 VL
B8: IL33-74 (antibody, human IgG1, kappa, V domains shown)
VH: B4 VH with D105S
VL: B4 VL with K31D
B9: IL33-75 (antibody, human IgG1, kappa, V domains shown)
VH: B4 VH with D105S
VL: B4 VL with N30D
B10: IL33-80 (antibody, human IgG1, kappa, V domains shown)
VH: B4 VH with D105S
VL: B4 VL with T56D
B11: IL33-81 (antibody, human IgG1, kappa, V domains shown)
VH: B4 VH with D105S
VL: B4 VL with T56E

Molecular target: T1, human IL-33 (mm2)
Test: cell-based or functional assay

For B1, the “IC50, HEK293 ST2 NFkB” value was 0.049 nM.

Molecular target: T1, human IL-33 (mm2)
Test: cell-based or functional assay
Remark: another data set of the same source

Compared with B2, B3 is 4.5-fold lower in “estimated IC50, HEK293 ST2 NFkB” value: 0.067 nM for the first, 0.015 nM for the second.

Molecular target: T1, human IL-33 (mm2)
Test: cell-based or functional assay
Remark: another data set of the same source

First: B4
Second: B5
The “IC50, HEK293 ST2 NFkB” value of the first is 11-fold higher: 0.31 nM for the first, 0.027 nM for the second.

B6 and B7 are within 1.5-fold of each other in “IC50, HEK293 ST2 NFkB” value: 0.595 nM for the first, 0.885 nM for the second.

B8 and B9 are within 1.5-fold of each other in “IC50, HEK293 ST2 NFkB” value: 0.174 nM for the first, 0.156 nM for the second.

B10 and B11 are within 1.5-fold of each other in “IC50, HEK293 ST2 NFkB” value: 0.161 nM for the first, 0.168 nM for the second.

Molecular target: T1, human IL-33 (mm2)
Test: BIAcore, IgG captured by anti-human Fc, 125 nM IL-33 (mm2)
Description: Binding to human and cynomolgus monkey IL-33 was measured by surface plasmon resonance using a BIAcore T200 instrument. An anti-human Fc antibody was immobilized on a CM5 chip, and anti-IL-33 antibodies were captured.

Compared with B2, B3 is 1.7-fold lower in koff: 0.000642 s⁻¹ for the first, 0.000385 s⁻¹ for the second.
